The source of these data is patent US20220340635A1, “FUSION PROTEIN FOR TREATMENT OF METABOLIC DISEASE” (ZHEJIANG DOER BIOLOGICS CORPORATION, priority 2019, published 2022).

Data set [1] has as its target Recombinant DPP-IV enzyme (Homo sapiens, UniProt P27487). Description: DPP-IV enzyme resistance (GCGR bioactivity after DPP-IV treatment). It is filed as in vitro ADME. The note with it: 5 μM protein, 10 nM recombinant DPP-IV, 37° C., 24 hours; GCGR bioactivity after/before treatment. The method, then: The purified fusion protein was dissolved in 10 mM of HEPES buffer (containing 0.05 mg/ml BSA) to a final concentration of 5 μM. Recombinant DPP-IV enzyme (final concentration of 10 nM) was added and incubated at 37° C. for 24 hours before detection of GCGR bioactivity. Activity retention rate=(activity after DPP-IV enzyme treatment/activity before DPP-IV enzyme treatment)×100%.

For data set [2] the following is noted: in vivo; cited from earlier work.

No end group written: not given here.

Sequence of Recombinant DPP-IV enzyme (P27487 whole entry, species assumed, the tested form may be a part): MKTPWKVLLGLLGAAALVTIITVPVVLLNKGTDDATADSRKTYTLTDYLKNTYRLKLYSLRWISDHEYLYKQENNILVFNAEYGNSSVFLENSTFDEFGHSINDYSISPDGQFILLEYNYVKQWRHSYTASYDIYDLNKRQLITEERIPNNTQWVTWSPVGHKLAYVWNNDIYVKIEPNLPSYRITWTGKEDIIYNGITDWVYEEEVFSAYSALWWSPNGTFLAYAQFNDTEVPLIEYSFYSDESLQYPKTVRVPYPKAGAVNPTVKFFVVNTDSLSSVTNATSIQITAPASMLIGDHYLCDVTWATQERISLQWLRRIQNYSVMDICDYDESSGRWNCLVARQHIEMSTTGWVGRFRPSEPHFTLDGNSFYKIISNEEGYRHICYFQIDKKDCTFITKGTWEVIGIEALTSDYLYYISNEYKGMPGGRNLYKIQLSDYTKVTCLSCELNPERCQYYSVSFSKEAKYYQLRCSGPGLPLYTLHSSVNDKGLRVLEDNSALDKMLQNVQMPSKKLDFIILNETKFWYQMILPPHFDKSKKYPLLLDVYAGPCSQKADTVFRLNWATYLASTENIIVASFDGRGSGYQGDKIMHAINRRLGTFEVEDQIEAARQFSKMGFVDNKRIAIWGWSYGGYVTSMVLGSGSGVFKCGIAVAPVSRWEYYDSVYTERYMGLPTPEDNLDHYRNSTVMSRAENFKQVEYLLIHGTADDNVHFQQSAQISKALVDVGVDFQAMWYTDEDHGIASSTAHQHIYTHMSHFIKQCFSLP

Take “H-D-Ser-QGTFTSDYSKYLDSQAAQDFVQWLMNGGPSSGAPPPS (not fully specified (N-terminus)) [GDSerGS, control]”: in data set [1], the “Activity preservation rate (%)” value came out at 99.2%.

For the substance Taspoglutide, in data set [2], the “Anti-drug antibody positive rate” value was 49%.
